Here are results for 2 molecules from patent publication US20170340735A1 (published 2017).

Assay [1] deals with T1, human TIGIT on the cell surface (human, UniProt Q495A1 22-244).
T1 construct: Expressed on engineered Jurkat cells or naturally on human primary CD8+ T cells (the cells are named under assay); also called Human TIGIT Jurkat; human TIGIT expressing Jurkat cells
T1 sequence: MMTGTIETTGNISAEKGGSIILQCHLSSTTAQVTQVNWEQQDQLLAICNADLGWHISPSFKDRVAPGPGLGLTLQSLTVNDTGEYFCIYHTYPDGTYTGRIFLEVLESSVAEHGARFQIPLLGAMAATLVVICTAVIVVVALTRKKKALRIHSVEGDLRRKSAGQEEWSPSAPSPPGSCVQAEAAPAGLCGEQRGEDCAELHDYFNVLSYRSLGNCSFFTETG
The assay is described as follows: flow cytometry on human primary CD8+ T cells.

The target of assay [2] is T2, mouse TIGIT on primary murine Tregs (mouse, UniProt P86176 29-249).
T2 construct: whole, on cells; also called Mouse Tregs
T2 sequence (looked up): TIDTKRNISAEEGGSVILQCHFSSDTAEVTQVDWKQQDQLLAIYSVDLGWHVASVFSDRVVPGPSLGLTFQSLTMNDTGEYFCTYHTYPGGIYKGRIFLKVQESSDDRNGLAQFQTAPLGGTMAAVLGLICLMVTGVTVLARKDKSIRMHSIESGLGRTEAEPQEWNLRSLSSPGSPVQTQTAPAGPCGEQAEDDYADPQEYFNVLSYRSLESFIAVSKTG
The assay is described as follows: flow cytometry on primary murine Tregs, average. In general terms: Flow cytometry measures light scatter and fluorescence of single cells or particles in a stream.

Assay [3] has as its target T3, cynomolgus monkey TIGIT on the cell surface (cynomolgus monkey).
T3 construct: Expressed on engineered Jurkat cells or naturally on cynomolgus monkey primary CD8+ T cells (the cells are named under assay); also called Cynomolgus Monkey TIGIT Jurkat; Cynomolgus Monkey CD8
The assay is described as follows: flow cytometry on cynomolgus monkey primary CD8+ T cells.

The target in assay [4] is T4, recombinant monomeric cynomolgus monkey TIGIT-His (cynomolgus monkey).
T4 construct: also called Cyno TIGIT His; cTIGIT; not shown: His tag
T4 sequence (chain, as listed by the source limits assumed): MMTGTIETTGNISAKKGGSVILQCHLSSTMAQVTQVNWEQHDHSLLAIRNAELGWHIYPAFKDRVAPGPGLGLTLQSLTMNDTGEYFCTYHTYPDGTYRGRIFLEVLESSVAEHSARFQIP
The assay is described as follows: BLI (Octet QKe), SEC1 on AMC sensor, cynomolgus monkey TIGIT-His in solution. Background: BLI is a label-free optical method that tracks binding on a fibre tip over time.

Assay [5] addresses T5, recombinant monomeric human TIGIT-His (human, UniProt Q495A1 22-141).
T5 construct: also called hTIGIT; not shown: His tag
T5 sequence: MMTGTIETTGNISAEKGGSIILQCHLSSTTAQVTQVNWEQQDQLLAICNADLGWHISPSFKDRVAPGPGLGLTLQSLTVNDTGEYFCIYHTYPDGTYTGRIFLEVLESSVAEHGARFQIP
The assay is described as follows: BLI (Octet QKe), SEC1 on AMC sensor, human TIGIT-His 33.8 to 1.25 nM, 1:1 global fit.

Assay [6] has as its target T6, recombinant monomeric mouse TIGIT-His (SEQ ID NO: 3) (mouse, UniProt P86176 29-148).
T6 construct: also called mTIGIT; not shown: His tag
T6 sequence: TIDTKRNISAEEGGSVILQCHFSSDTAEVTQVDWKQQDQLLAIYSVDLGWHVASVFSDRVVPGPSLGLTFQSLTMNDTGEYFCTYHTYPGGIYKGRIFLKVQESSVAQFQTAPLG
The assay is described as follows: BLI (Octet QKe), SEC1 on AMC sensor, mouse TIGIT-His 33 to 1.22 nM, 1:1 global fit.

T3 sequence (chain, as listed by the source limits assumed): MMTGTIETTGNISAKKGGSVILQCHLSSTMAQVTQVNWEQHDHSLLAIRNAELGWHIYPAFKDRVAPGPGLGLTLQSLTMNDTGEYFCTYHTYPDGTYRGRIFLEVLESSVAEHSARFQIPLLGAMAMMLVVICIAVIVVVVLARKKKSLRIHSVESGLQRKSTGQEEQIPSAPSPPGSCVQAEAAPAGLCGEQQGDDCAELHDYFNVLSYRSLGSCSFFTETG

B1: SEC1 human IgG4 S228P (antibody)
heavy: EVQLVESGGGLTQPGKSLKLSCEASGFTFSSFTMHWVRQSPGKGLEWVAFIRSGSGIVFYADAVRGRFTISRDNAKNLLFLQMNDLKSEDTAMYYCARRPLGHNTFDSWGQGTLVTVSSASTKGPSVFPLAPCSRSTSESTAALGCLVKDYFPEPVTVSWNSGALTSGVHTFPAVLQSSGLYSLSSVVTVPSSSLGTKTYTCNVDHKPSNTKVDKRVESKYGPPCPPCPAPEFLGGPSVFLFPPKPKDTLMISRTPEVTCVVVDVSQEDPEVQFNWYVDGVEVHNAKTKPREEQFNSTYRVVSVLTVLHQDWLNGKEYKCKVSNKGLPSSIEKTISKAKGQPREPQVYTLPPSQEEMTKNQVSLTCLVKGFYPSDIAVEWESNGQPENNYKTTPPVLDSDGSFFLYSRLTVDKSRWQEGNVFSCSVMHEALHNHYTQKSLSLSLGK
light: DIVMTQSPSSLAVSPGEKVTMTCKSSQSLYYSGVKENLLAWYQQKPGQSPKLLIYYASIRFTGVPDRFTGSGSGTDYTLTITSVQAEDMGQYFCQQGINNPLTFGDGTKLEIKRTVAAPSVFIFPPSDEQLKSGTASVVCLLNNFYPREAKVQWKVDNALQSGNSQESVTEQDSKDSTYSLSSTLTLSKADYEKHKVYACEVTHQGLSSPVTKSFNRGEC
notes: Chimeric: hamster variable regions, human IgG4 S228P and human kappa constant regions; also called SEC1 (IgG4 S228P)
One may read the Kd as the free concentration of one partner at which half of the binding sites on the other are occupied at equilibrium, for simple one-to-one binding. B1: the dissociation constant (Kd) came to 3.6 nM in assay [1] and 0.41 nM in assay [2]. Besides, the binding result in assay [3] was “no binding”.

B2: SEC1 mouse IgG2a N297A (antibody)
heavy: EVQLVESGGGLTQPGKSLKLSCEASGFTFSSFTMHWVRQSPGKGLEWVAFIRSGSGIVFYADAVRGRFTISRDNAKNLLFLQMNDLKSEDTAMYYCARRPLGHNTFDSWGQGTLVTVSSAKTTAPSVYPLAPVCGDTTGSSVTLGCLVKGYFPEPVTLTWNSGSLSSGVHTFPAVLQSDLYTLSSSVTVTSSTWPSQSITCNVAHPASSTKVDKKIEPRGPTIKPCPPCKCPAPNLLGGPSVFIFPPKIKDVLMISLSPIVTCVVVDVSEDDPDVQISWFVNNVEVHTAQTQTHREDYASTLRVVSALPIQHQDWMSGKEFKCKVNNKDLPAPIERTISKPKGSVRAPQVYVLPPPEEEMTKKQVTLTCMVTDFMPEDIYVEWTNNGKTELNYKNTEPVLDSDGSYFMYSKLRVEKKNWVERNSYSCSVVHEGLHNHHTTKSFSRTPGK
light: DIVMTQSPSSLAVSPGEKVTMTCKSSQSLYYSGVKENLLAWYQQKPGQSPKLLIYYASIRFTGVPDRFTGSGSGTDYTLTITSVQAEDMGQYFCQQGINNPLTFGDGTKLEIKRADAAPTVSIFPPSSEQLTSGGASVVCFLNNFYPKDINVKWKIDGSERQNGVLNSWTDQDSKDSTYSMSSTLTLTKDEYERHNSYTCEATHKTSTSPIVKSFNRNEC
notes: also called SEC1 IgG2a N297A
As usually defined, the koff is the first-order rate constant of dissociation. One may read the kon as a measure of how fast the partners come together. For the molecule B2, the binding result in assay [4] is “no binding (tested: 302.8 to 0.42 nM)”. Also, in assay [5], the Kd is 4.7 nM, the off-rate constant (koff) was determined as 0.0079 s⁻¹ and the kon was 1.7e+06 M⁻¹ s⁻¹. Further, in assay [6], the Kd came out at 0.32 nM, the koff worked out at 0.0006 s⁻¹ and the kon is 1.9e+06 M⁻¹ s⁻¹.
